Protein stability index data for 94 variants are collected here from the supplement of paper PMC10567573.

The chains are these.
B1: KRT18 (parent)
chain: KSQDLAKIMADIRAQYDELARKNR
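Note: lentivirally expressed fusions sorted by FACS into six bins by GFP to DsRed ratio, PSI derived from sequencing read proportions per bin multiplied by bin number.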

In the data set the parent is B1. In words: protein stability index of a GFP-peptide fusion (GPS, HEK-293T) (PSI 1-6); higher = more stable. As to conditions: c terminus: a fixed tail appended.
As to KSQDLAKIMADIRAQYDELAQKNR [R21Q], the protein stability index was 2.59.

Consider KSQDLAKIMADIRAQYDELAWKNR [R21W], for which the protein stability index came to 2.47.

On to KSQDLAKIMADIRAQYDELAHKNR [R21H], for which the protein stability index is 3.26.

On to KSQDLAKIMADIRAQYDELAIKNR [R21I], for which the protein stability index amounted to 3.24.

Turning to KSQDLAKIMADIRAQYDELAYKNR [R21Y], the protein stability index was 2.65.

KSQDLAKIMADIRAQYDELATKNR [R21T]: the protein stability index came to 2.83.

In the case of KSQDLAKIMADIRAQYDELAEKNR [R21E], the protein stability index amounted to 2.14.

Take KSQDLAKEMADIRAQYDELARKNR [I8E]: the protein stability index came to 4.17.

For the variant KSQDLAKRMADIRAQYDELARKNR [I8R], the protein stability index was found to be 3.35.

As to KSQDLAKQMADIRAQYDELARKNR [I8Q], the protein stability index worked out at 4.1.

In the case of KSQDLAKCMADIRAQYDELARKNR [I8C], the protein stability index was 3.37.

With KSQDLAKKMADIRAQYDELARKNR [I8K], the protein stability index came out at 3.79.

Consider KSQDLAKTMADIRAQYDELARKNR [I8T], for which the protein stability index was 3.27.

KSQDLAKWMADIRAQYDELARKNR [I8W]: the protein stability index worked out at 2.4.

Turning to KSQDLAKLMADIRAQYDELARKNR [I8L], the protein stability index was determined as 3.13.

For the variant KSQDLAKIMADIRAQYDELARKLR [N23L], the protein stability index was 2.51.

On to KSQDLAKIMADIRAQYDELARKER [N23E], for which the protein stability index is 3.83.

Consider KSQDLAKIMADIRAQYDELARKCR [N23C], for which the protein stability index turned out to be 3.06.

As to KSQDLAKIMADIRAQYDELARKQR [N23Q], the protein stability index came to 2.65.

Regarding KSQDLAKIMADIRAQYDELARKGR [N23G], the protein stability index amounted to 2.61.

As for KSQDLAKIMADIRAQYDELARKFR [N23F], the protein stability index stood at 2.07.

Turning to KSQDLAKIMADIRAQYDELARKAR [N23A], the protein stability index is 2.9.

Consider KSQDLAKIMADIRRQYDELARKNR [A14R], for which the protein stability index was 2.71.

For KSQDLAKIMADIRYQYDELARKNR [A14Y], the protein stability index stood at 3.27.

Turning to KSQDLAKIMADIRCQYDELARKNR [A14C], the protein stability index came to 3.05.

In the case of KSQDLAKIMADIRGQYDELARKNR [A14G], the protein stability index came out at 3.39.

For the variant KSQDLAKIMADIRFQYDELARKNR [A14F], the protein stability index is 2.74.

As to KSQDLAKIMADIREQYDELARKNR [A14E], the protein stability index stood at 2.89.

Regarding KSQDLAKIMADIRVQYDELARKNR [A14V], the protein stability index is 2.68.

For KSQDLAKIMADIRTQYDELARKNR [A14T], the protein stability index was determined as 2.58.

Turning to KSQDLAKIMADIRSQYDELARKNR [A14S], the protein stability index worked out at 3.63.

Regarding KSQDLAKIMADIRKQYDELARKNR [A14K], the protein stability index turned out to be 2.4.

For KSQDLAKIMADIRDQYDELARKNR [A14D], the protein stability index was determined as 2.8.

KSQDLAKIMADIRIQYDELARKNR [A14I]: the protein stability index worked out at 3.21.

For KSQDLAKIMADIRAQYDELARKNH [R24H], the protein stability index came out at 2.81.

Take KSQDLAKIMADIRAQYDELARKND [R24D]: the protein stability index turned out to be 3.81.

With KSQDLAKIMADIRAQYDELARKNC [R24C], the protein stability index is 1.92.

As to KSQDLAKIMADIRAQYDELARKNN [R24N], the protein stability index stood at 3.13.

Consider KSQDLAKIMADIRAQYDELARKNT [R24T], for which the protein stability index is 3.13.

Regarding KSQDLAKIMADIRAQYDELARKNA [R24A], the protein stability index came out at 3.33.

Take KSQDLAKIMADIRAQYDELARKNV [R24V]: the protein stability index turned out to be 2.57.

With KSQDLAKIMADIRAQYDELARKNM [R24M], the protein stability index is 3.07.

For KSQDLAKIMADIRAQYDELARKNP [R24P], the protein stability index was 3.16.

Consider KSQDLAKIMADIRAQYDELARKNF [R24F], for which the protein stability index was 2.79.

In the case of KSQDLAKIMADIRAQYDELARKNI [R24I], the protein stability index worked out at 2.1.

Take KSQDLAKIMADIRAQYDEIARKNR [L19I]: the protein stability index amounted to 3.12.

Consider KSQDLAKIMADIRAQYDEMARKNR [L19M], for which the protein stability index came to 3.2.

As for KSQDLAKIMADIRAQYDERARKNR [L19R], the protein stability index is 3.63.

For the variant KSQDLAKIMADIRAQYDENARKNR [L19N], the protein stability index is 3.63.

With KSQDLAKIMADIRAQYDEYARKNR [L19Y], the protein stability index amounted to 2.73.

Consider KSQDLAKIMADIRAQYDEDARKNR [L19D], for which the protein stability index turned out to be 3.75.

With KSQDLAKIMADIRAQYDETARKNR [L19T], the protein stability index is 3.58.

With KSQDLAKIMADIRAQYDEAARKNR [L19A], the protein stability index came to 3.52.

As to KSQDLAKIMADIRAQYDEPARKNR [L19P], the protein stability index worked out at 2.98.

In the case of KLQDLAKIMADIRAQYDELARKNR [S2L], the protein stability index came out at 1.73.

Consider KAQDLAKIMADIRAQYDELARKNR [S2A], for which the protein stability index was 2.2.

On to KEQDLAKIMADIRAQYDELARKNR [S2E], for which the protein stability index was 3.02.

As for KMQDLAKIMADIRAQYDELARKNR [S2M], the protein stability index was 2.04.

Turning to KQQDLAKIMADIRAQYDELARKNR [S2Q], the protein stability index was 2.46.

In the case of KTQDLAKIMADIRAQYDELARKNR [S2T], the protein stability index came out at 2.7.

As to KFQDLAKIMADIRAQYDELARKNR [S2F], the protein stability index stood at 1.84.

With KSQDLAKIMADIRAQQDELARKNR [Y16Q], the protein stability index worked out at 3.89.

Consider KSQDLAKIMADIRAQNDELARKNR [Y16N], for which the protein stability index was found to be 4.13.

Regarding KSQDLAKIMADIRAQADELARKNR [Y16A], the protein stability index was 4.24.

Turning to KSQDLAKIMADIRAQWDELARKNR [Y16W], the protein stability index was found to be 2.67.

For KSQDLAKIMADIRAQMDELARKNR [Y16M], the protein stability index amounted to 3.31.

Take KSQDLAKIMADIRAQKDELARKNR [Y16K]: the protein stability index was 3.93.

In the case of KSQDLAKIMADIRAQSDELARKNR [Y16S], the protein stability index worked out at 3.88.

In the case of KSQDLAKIMADIRAQIDELARKNR [Y16I], the protein stability index worked out at 3.08.

For the variant KSQDLAKIMADIRACYDELARKNR [Q15C], the protein stability index turned out to be 2.37.

As to KSQDLAKIMADIRALYDELARKNR [Q15L], the protein stability index worked out at 1.9.

As for KSQDLAKIMADIRAAYDELARKNR [Q15A], the protein stability index was 2.06.

On to KSQDLAKIMADIRANYDELARKNR [Q15N], for which the protein stability index was found to be 3.

With KSQDLAKIMADIRADYDELARKNR [Q15D], the protein stability index was found to be 3.49.

In the case of KSQDLAKIMADIRAPYDELARKNR [Q15P], the protein stability index was found to be 3.84.

For the variant KSQDLAKIMADIRAVYDELARKNR [Q15V], the protein stability index was 2.06.

KSQDLAKIMADIRAEYDELARKNR [Q15E]: the protein stability index stood at 2.01.

With KSQDLAKIMADIRAGYDELARKNR [Q15G], the protein stability index is 3.43.

Turning to KSQDLAKIMADIRAKYDELARKNR [Q15K], the protein stability index is 2.4.

For the variant KSQDLAKIMADIRAQYDELARVNR [K22V], the protein stability index came to 2.23.

In the case of KSQDLAKIMADIRAQYDELARINR [K22I], the protein stability index is 1.89.

On to KSQDLAKIMADIRAQYDELARLNR [K22L], for which the protein stability index was found to be 2.43.

KSQDLAKIMADIRAQYDELARYNR [K22Y]: the protein stability index turned out to be 2.29.

Take KSQDLAKIMADIRAQYDELARANR [K22A]: the protein stability index was 2.67.

For the variant KSQDLAKIMADIRAQYDELARSNR [K22S], the protein stability index was 2.88.

Consider KSQDLAKIMADIRAQYDELARGNR [K22G], for which the protein stability index turned out to be 3.04.

As for KSQDLAKIMADIRAQYDELARWNR [K22W], the protein stability index was 1.88.

As for KSQDLAFIMADIRAQYDELARKNR [K7F], the protein stability index is 1.9.

Turning to KSQDLAQIMADIRAQYDELARKNR [K7Q], the protein stability index was 2.43.

Take KSQDLAWIMADIRAQYDELARKNR [K7W]: the protein stability index was determined as 2.14.

Turning to KSQDLATIMADIRAQYDELARKNR [K7T], the protein stability index amounted to 2.67.

Consider KSQDLAVIMADIRAQYDELARKNR [K7V], for which the protein stability index is 3.32.

KSQDLADIMADIRAQYDELARKNR [K7D]: the protein stability index is 2.76.

For KSQDLAAIMADIRAQYDELARKNR [K7A], the protein stability index is 2.41.
